{"source": "paper PMC11077872", "about": "“Sustainable production of multimeric and functional recombinant human adiponectin using genome-edited chickens” (Journal of Biological Engineering, 2024)", "key": {"[1]": {"molecular_target": "the molecule itself", "experiment": "non-reducing SDS-PAGE with western blot; egg white of hens of generations G1-G4 diluted 500 times, mixed with native sample buffer (non-reducing), SDS-PAGE, anti-ADPN blot; with beta-mercaptoethanol and 95 °C mostly monomer at 28 kDa and a weak trimer signal"}, "[2]": {"molecular_target": "the molecule itself", "experiment": "non-reducing SDS-PAGE with western blot; 100 ng of purified or commercial hADPN, mixed with native sample buffer (non-reducing), SDS-PAGE, anti-ADPN blot; with beta-mercaptoethanol and 95 °C mostly monomer, some trimer"}}, "note": "Values joined by “and” are separate entries in the source; they are usually repeats but may differ in a detail not shown here. Identical values can stand only once."}
{"protein": "recombinant human adiponectin (hADPN) from egg white of OVA ADPN knock-in genome-edited chickens (natural protein, UniProt Q15848 19-244, looked up, human adiponectin (ADPN), expressed from the chicken ovalbumin locus by knock-in; A mixture of hexamers and HMW multimers; also called EW-derived hADPN; EW-derived recombinant hADPN; source: egg white of OVA ADPN knock-in hens (G1-G4), diluted egg white; also purified from egg white (ammonium sulfate, HiTrap Q, Superdex 200 SEC)) ETTTQGPGVLLPLPKGACTGWMAGIPGHPGHNGAPGRDGRDGTPGEKGEKGDPGLIGPKGDIGETGVPGAEGPRGFPGIQGRKGEPGEGAYVYRSAFSVGLETYVTIPNMPIRFTKIFYNQQNHYDGSTGKFHCNIPGLYYFAYHITVYMKDVKVSLFKKDKAMLFTYDQYQENNVDQASGSVLLHLEVGDQVWLQVYGEGERNGLYADNDNDSTFTGFLLYHDTN", "values": [{"measurement": "stoichiometry N", "setting": "[1]", "value": 6}]}
{"protein": "commercial recombinant hADPN derived from human embryonic kidney (HEK) 293 cells with a C-terminal FLAG tag (natural protein, UniProt Q15848 19-244, looked up, human adiponectin (ADPN); Mixture of trimers, hexamers and HMW forms; also called HEK293 cell hADPN; HEK293 cell-derived commercial hADPN; source: bought: Biovendor R&D (RD172023100), HEK293 cells; not shown: FLAG, C-terminal, kept) ETTTQGPGVLLPLPKGACTGWMAGIPGHPGHNGAPGRDGRDGTPGEKGEKGDPGLIGPKGDIGETGVPGAEGPRGFPGIQGRKGEPGEGAYVYRSAFSVGLETYVTIPNMPIRFTKIFYNQQNHYDGSTGKFHCNIPGLYYFAYHITVYMKDVKVSLFKKDKAMLFTYDQYQENNVDQASGSVLLHLEVGDQVWLQVYGEGERNGLYADNDNDSTFTGFLLYHDTN", "values": [{"measurement": "stoichiometry N", "setting": "[2]", "value": "6 and 3"}]}
{"protein": "High-Five (Hi-5) cell-derived recombinant hADPN (natural protein, human, UniProt Q15848 19-244, looked up, human adiponectin (ADPN); Mostly trimers, with hexamers and a weak monomer signal; also called Hi-5 cell hADPN; Hi-5 cell-derived commercial hADPN; source: bought: PeproTech (450-24), Hi-5 cells) ETTTQGPGVLLPLPKGACTGWMAGIPGHPGHNGAPGRDGRDGTPGEKGEKGDPGLIGPKGDIGETGVPGAEGPRGFPGIQGRKGEPGEGAYVYRSAFSVGLETYVTIPNMPIRFTKIFYNQQNHYDGSTGKFHCNIPGLYYFAYHITVYMKDVKVSLFKKDKAMLFTYDQYQENNVDQASGSVLLHLEVGDQVWLQVYGEGERNGLYADNDNDSTFTGFLLYHDTN", "values": [{"measurement": "stoichiometry N", "setting": "[2]", "value": "3 and 6"}]}
{"protein": "serum-derived commercial hADPN (natural protein, human, UniProt Q15848 19-244, looked up, human adiponectin (ADPN), native protein from human serum; also called native serum-derived hADPN; human serum hADPN (positive control); source: bought: ProSpec (CYT-024), derived from human serum) ETTTQGPGVLLPLPKGACTGWMAGIPGHPGHNGAPGRDGRDGTPGEKGEKGDPGLIGPKGDIGETGVPGAEGPRGFPGIQGRKGEPGEGAYVYRSAFSVGLETYVTIPNMPIRFTKIFYNQQNHYDGSTGKFHCNIPGLYYFAYHITVYMKDVKVSLFKKDKAMLFTYDQYQENNVDQASGSVLLHLEVGDQVWLQVYGEGERNGLYADNDNDSTFTGFLLYHDTN", "values": [{"measurement": "stoichiometry N", "setting": "[2]", "value": 6}]}
